This note sets out measurements from patent US20020037506, “Aptamer based two-site binding assay” (published 2002).

Series [1] has as its target T1, alpha-thrombin (Homo sapiens, UniProt P00734;P00734 P00734:328-363,P00734:364-622). Put plainly: detector in two-step sandwich on nylon membrane with immobilized DT-aptamer, room temperature, 100 uM heparin.
Series [2] deals with T1, alpha-thrombin. Put plainly: flow; reporter with DT-beads (FIG. 2 legend cites SEQ 12 but Table 1 gives SEQ 7); 50 mM Tris pH 7.5, 100 mM NaCl, 2 mM MgCl2, 37 C.
Series [3] concerns the target T1, alpha-thrombin. Put plainly: flow; reporter with MC-beads, 30 nM thrombin, 37 C; values in figure only.

B1: MC-DIMR-F (ssDNA)
DNA: GTAGTCACTGGTTGGTGAGGTTGGGTGACTACTTTTTTCATCAGTGGGTTGGAGTGGTTGGTCACTGATG
modifications: dimer; second half is the MC sequence in reverse order, structure drawn as image only
Turning to B1, in the series with alpha-thrombin [1], the binding result is listed as “binds”.

With TTTTTTGTAGTCACTGGTTGGTGAGGTTGGGTGACTAC (ssDNA) [MC-5'-LNK-F], the binding result with alpha-thrombin [2] is given as “binds”.

As for TTTTTGCTTAGTCCGTGGTAGGGCAGGTTGGGGTGACTAAGC (ssDNA) [DT-5'-LNK-F], the binding result with alpha-thrombin [3] was “binds”.
